B1: AEBP2 (natural protein)
chain: MAAAITDMADLEELSRLSPLPPGSPGSAARGRAEPPEEEEEEEEEEEEAEAEAVAALLLNGGSGGGGGGGGGGVGGGEAETMSEPSPESASQAGEDEDEEEDDEEEEDESSSSGGGEEESSAESLVGSSGGSSSDETRSLSPGAASSSSGDGDGKEGLEEPKGPRGSQGGGGGGSSSSSVVSSGGDEGYGTGGGGSSATSGGRRGSLEMSSDGEPLSRMDSEDSISSTIMDVDSTISSGRSTPAMMNGQGSTTSSSKNIAYNCCWDQCQACFNSSPDLADHIRSIHVDGQRGGVFVCLWKGCKVYNTPSTSQSWLQRHMLTHSGDKPFKCVVGGCNASFASQGGLARHVPTHFSQQNSSKVSSQPKAKEESPSKAGMNKRRKLKNKRRRSLPRPHDFFDAQTLDAIRHRAICFNLSAHIESLGKGHSVVFHSTVIAKRKEDSGKIKLLLHWMPEDILPDVWVNESERHQLKTKVVHLSKLPKDTALLLDPNIYRTMPQKRLKRTLIRKVFNLYLSKQ
B2: Jarid2 (natural protein)
chain: MSKERPKRNIIQKKYDDSDGIPWSEERVVRKVLYLSLKEFKNSQKRQHAEGIAGSLKTVNGLLGNDQSKGLGPASEQSENEKDDASQVSSTSNDVSSSDFEEGPSRKRPRLQAQRKFAQSQPNSPSTTPVKIVEPLLPPPATQISDLSKRKPKTEDFLTFLCLRGSPALPNSMVYFGSSQDEEEVEEEDDETEDVKTATNNASSSCQSTPRKGKTHKHVHNGHVFNGSSRSTREKEPVQKHKSKEATPAKEKHSDHRADSRREQASANHPAAAPSTGSSAKGLAATHHHPPLHRSAQDLRKQVSKVNGVTRMSSLGAGVTSAKKMREVRPSPSKTVKYTATVTKGAVTYTKAKRELVKDTKPNHHKPSSAVNHTISGKTESSNAKTRKQVLSLGGASKSTGPAVNGLKVSGRLNPKSCTKEVGGRQLREGLQLREGLRNSKRRLEEAHQAEKPQSPPKKMKGAAGPAEGPGKKAPAERGLLNGHVKKEVPERSLERNRPKRATAGKSTPGRQAHGKADSASCENRSTSQPESVHKPQDSGKAEKGGGKAGWAAMDEIPVLRPSAKEFHDPLIYIESVRAQVEKFGMCRVIPPPDWRPECKLNDEMRFVTQIQHIHKLGRRWGPNVQRLACIKKHLKSQGITMDELPLIGGCELDLACFFRLINEMGGMQQVTDLKKWNKLADMLRIPRTAQDRLAKLQEAYCQYLLSYDSLSPEEHRRLEKEVLMEKEILEKRKGPLEGHTENDHHKFHPLPRFEPKNGLIHGVAPRNGFRSKLKEVGQAQLKTGRRRLFAQEKEVVKEEEEDKGVLNDFHKCIYKGRSVSLTTFYRTARNIMSMCFSKEPAPAEIEQEYWRLVEEKDCHVAVHCGKVDTNTHGSGFPVGKSEPFSRHGWNLTVLPNNTGSILRHLGAVPGVTIPWLNIGMVFSTSCWSRDQNHLPYIDYLHTGADCIWYCIPAEEENKLEDVVHTLLQANGTPGLQMLESNVMISPEVLCKEGIKVHRTVQQSGQFVVCFPGSFVSKVCCGYSVSETVHFATTQWTSMGFETAKEMKRRHIAKPFSMEKLLYQIAQAEAKKENGPTLSTISALLDELRDTELRQRRQLFEAGLHSSARYGSHDGSSTVADGKKKPRKWLQLETSERRCQICQHLCYLSMVVQENENVVFCLECALRHVEKQKSCRGLKLMYRYDEEQIISLVNQICGKVSGKNGSIENCLSKPTPKRGPRKRATVDVPPSRLSASSSSKSASSSS
B3: PLRG1 (natural protein)
chain: MVEEVQKHSVHTLVFRSLKRTHDMFVADNGKPVPLDEESHKRKMAIKLRNEYGPVLHMPTSKENLKEKGPQNATDSYVHKQYPANQGQEVEYFVAGTHPYPPGPGVALTADTKIQRMPSESAAQSLAVALPLQTKADANRTAPSGSEYRHPGASDRPQPTAMNSIVMETGNTKNSALMAKKAPTMPKPQWHPPWKLYRVISGHLGWVRCIAVEPGNQWFVTGSADRTIKIWDLASGKLKLSLTGHISTVRGVIVSTRSPYLFSCGEDKQVKCWDLEYNKVIRHYHGHLSAVYGLDLHPTIDVLVTCSRDSTARIWDVRTKASVHTLSGHTNAVATVRCQAAEPQIITGSHDTTIRLWDLVAGKTRVTLTNHKKSVRAVVLHPRHYTFASGSPDNIKQWKFPDGSFIQNLSGHNAIINTLTVNSDGVLVSGADNGTMHLWDWRTGYNFQRVHAAVQPGSLDSESGIFACAFDQSESRLLTAEADKTIKVYREDDTATEETHPVSWKPEIIKRKRF
B4: CTNNBL1 (natural protein)
chain: MDVGELLSYQPNRGTKRPRDDEEEEQKMRRKQTGTRERGRYREEEMTVVEEADDDKKRLLQIIDRDGEEEEEEEEPLDESSVKKMILTFEKRSYKNQELRIKFPDNPEKFMESELDLNDIIQEMHVVATMPDLYHLLVELNAVQSLLGLLGHDNTDVSIAVVDLLQELTDIDTLHESEEGAEVLIDALVDGQVVALLVQNLERLDESVKEEADGVHNTLAIVENMAEFRPEMCTEGAQQGLLQWLLKRLKAKMPFDANKLYCSEVLAILLQDNDENRELLGELDGIDVLLQQLSVFKRHNPSTAEEQEMMENLFDSLCSCLMLSSNRERFLKGEGLQLMNLMLREKKISRSSALKVLDHAMIGPEGTDNCHKFVDILGLRTIFPLFMKSPRKIKKVGTTEKEHEEHVCSILASLLRNLRGQQRTRLLNKFTENDSEKVDRLMELHFKYLGAMQVADKKIEGEKHDMVRRGEIIDNDTEEEFYLRRLDAGLFVLQHICYIMAEICNANVPQIRQRVHQILNMRGSSIKIVRHIIKEYAENIGDGRSPEFRENEQKRILGLLENF
B5: PRP19 (natural protein)
chain: MSLICSISNEVPEHPCVSPVSNHVYERRLIEKYIAENGTDPINNQPLSEEQLIDIKVAHPIRPKPPSATSIPAILKALQDEWDAVMLHSFTLRQQLQTTRQELSHALYQHDAACRVIARLTKEVTAAREALATLKPQAGLIVPQAVPSSQPSVVGAGEPMDLGELVGMTPEIIQKLQDKATVLTTERKKRGKTVPEELVKPEELSKYRQVASHVGLHSASIPGILALDLCPSDTNKILTGGADKNVVVFDKSSEQILATLKGHTKKVTSVVFHPSQDLVFSASPDATIRIWSVPNASCVQVVRAHESAVTGLSLHATGDYLLSSSDDQYWAFSDIQTGRVLTKVTDETSGCSLTCAQFHPDGLIFGTGTMDSQIKIWDLKERTNVANFPGHSGPITSIAFSENGYYLATAADDSSVKLWDLRKLKNFKTLQLDNNFEVKSLIFDQSGTYLALGGTDVQIYICKQWTEILHFTEHSGLTTGVAFGHHAKFIASTGMDRSLKFYSL
B6: AD-002 (natural protein)
chain: MTTAARPTFEPARGGRGKGEGDLSQLSKQYSSRDLPSHTKIKYRQTTQDAPEEVRNRDFRRELEERERAAAREKNRDRPTREHTTSSSVSKKPRLDQIPAANLDADDPLTDEEDEDFEEESDDDDTAALLAELEKIKKERAEEQARKEQEQKAEEERIRMENILSGNPLLNLTGPSQPQANFKVKRRWDDDVVFKNCAKGVDDQKKDKRFVNDTLRSEFHKKFMEKYIK
B7: Spf27 (natural protein)
chain: MAGTGLVAGEVVVDALPYFDQGYEAPGVREAAAALVEEETRRYRPTKNYLSYLTAPDYSAFETDIMRNEFERLAARQPIELLSMKRYELPAPSSGQKNDITAWQECVNNSMAQLEHQAVRIENLELMSQHGCNAWKVYNENLVHMIEHAQKELQKLRKHIQDLNWQRKNMQLTAGSKLREMESNWVSLVSKNYEIERTIVQLENEIYQIKQQHGEANKENIRQDF

Target: EED-GFP (UniProt O75530 1-441)
Sequence (O75530 whole entry): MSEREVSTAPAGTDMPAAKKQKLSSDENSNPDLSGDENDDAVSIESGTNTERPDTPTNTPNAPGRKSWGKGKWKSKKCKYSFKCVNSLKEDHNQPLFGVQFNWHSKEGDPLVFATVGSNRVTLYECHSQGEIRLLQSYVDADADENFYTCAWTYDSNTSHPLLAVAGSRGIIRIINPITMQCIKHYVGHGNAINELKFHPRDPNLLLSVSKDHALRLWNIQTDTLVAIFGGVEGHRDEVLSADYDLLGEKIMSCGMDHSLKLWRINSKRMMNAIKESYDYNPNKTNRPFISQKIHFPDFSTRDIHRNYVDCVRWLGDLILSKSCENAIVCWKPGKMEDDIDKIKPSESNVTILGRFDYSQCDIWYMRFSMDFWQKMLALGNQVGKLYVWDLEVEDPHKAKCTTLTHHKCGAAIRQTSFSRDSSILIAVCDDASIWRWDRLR
Test: affinity purification with mass spectrometry

Compared with B1, B2 is lower in “stoichiometry N” value: 0.2 relative to EED for the first, 0.12 relative to EED for the second.

Target: CDC5L–GFP (UniProt Q99459 1-802)
Sequence (Q99459 whole entry): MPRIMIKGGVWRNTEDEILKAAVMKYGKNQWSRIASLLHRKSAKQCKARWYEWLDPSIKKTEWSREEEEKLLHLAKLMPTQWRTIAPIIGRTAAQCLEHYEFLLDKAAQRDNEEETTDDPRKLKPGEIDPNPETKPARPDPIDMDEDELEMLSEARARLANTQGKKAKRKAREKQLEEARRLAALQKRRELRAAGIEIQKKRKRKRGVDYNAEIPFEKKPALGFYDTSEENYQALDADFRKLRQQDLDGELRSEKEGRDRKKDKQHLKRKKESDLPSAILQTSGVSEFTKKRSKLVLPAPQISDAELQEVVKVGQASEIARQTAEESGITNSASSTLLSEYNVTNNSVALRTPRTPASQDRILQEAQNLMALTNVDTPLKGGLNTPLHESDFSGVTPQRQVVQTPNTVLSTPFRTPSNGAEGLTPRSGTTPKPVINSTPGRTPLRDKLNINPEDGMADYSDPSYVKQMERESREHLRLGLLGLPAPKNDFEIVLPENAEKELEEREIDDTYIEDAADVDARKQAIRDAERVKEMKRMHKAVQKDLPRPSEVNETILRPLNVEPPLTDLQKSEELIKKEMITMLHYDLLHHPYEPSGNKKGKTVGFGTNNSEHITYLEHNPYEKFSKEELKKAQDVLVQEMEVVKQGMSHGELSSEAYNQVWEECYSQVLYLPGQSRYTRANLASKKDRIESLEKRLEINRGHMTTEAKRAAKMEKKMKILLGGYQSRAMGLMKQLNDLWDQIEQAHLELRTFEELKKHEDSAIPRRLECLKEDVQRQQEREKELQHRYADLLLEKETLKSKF
Test: affinity purification with mass spectrometry

First: B3
Second: B4
The “stoichiometry N” value of the first is higher: 0.37 relative to CDC5L for the first, 0.06 relative to CDC5L for the second.

First: B5
Second: B6
The “stoichiometry N” value of the first is higher: 2.08 relative to CDC5L for the first, 0.36 relative to CDC5L for the second.

B7 was tested, and the “stoichiometry N” value was 0.62 relative to CDC5L.

First: B3
Second: B4
The “stoichiometry with CDC5L as a dimer (CDC5L 2)” value (“stoichiometry with CDC5L” for short) of the first is higher: 0.72 per CDC5L dimer for the first, 0.12 per CDC5L dimer for the second.

Going from B5 to B6, the “stoichiometry with CDC5L” value falls from 4.16 per CDC5L dimer to 0.72 per CDC5L dimer.

With B7 the “stoichiometry with CDC5L” value was 1.24 per CDC5L dimer.
